Laboratory results: patent US20240409645A1 (DUALYX, published 2024)

T1: human IL-2Rγ (common cytokine receptor γ-chain) (human, UniProt P31785 23-262, limits assumed)
T1 construct: Recombinant human IL-2Rγ protein coated on the ELISA plate or immobilised on the CM5 chip; also called hu IL-2R; CD132
T1 sequence: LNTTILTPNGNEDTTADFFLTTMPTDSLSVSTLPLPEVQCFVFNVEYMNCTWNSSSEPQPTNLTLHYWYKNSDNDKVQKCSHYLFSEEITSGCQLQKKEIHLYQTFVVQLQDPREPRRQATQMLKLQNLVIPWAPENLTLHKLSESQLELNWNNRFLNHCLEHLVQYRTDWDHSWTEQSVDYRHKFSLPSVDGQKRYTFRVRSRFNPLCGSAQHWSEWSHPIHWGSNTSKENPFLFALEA

T2: human interleukin-2 receptor α-chain (IL-2Rα; CD25), recombinant protein (human, UniProt P01589 22-240, limits assumed)
T2 construct: also called huIL2R-a; hIL-2RA
T2 sequence: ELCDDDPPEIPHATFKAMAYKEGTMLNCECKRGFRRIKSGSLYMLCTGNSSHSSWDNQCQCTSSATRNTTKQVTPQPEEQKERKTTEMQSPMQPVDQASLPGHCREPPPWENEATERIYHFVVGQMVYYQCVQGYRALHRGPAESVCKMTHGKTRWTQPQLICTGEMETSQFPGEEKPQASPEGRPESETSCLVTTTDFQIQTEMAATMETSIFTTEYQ

T3: cynomolgus monkey IL-2Rα/CD25 subunit (cynomolgus monkey, UniProt H6WS54 22-213)
T3 construct: also called Cyno IL-2R subunit
T3 sequence: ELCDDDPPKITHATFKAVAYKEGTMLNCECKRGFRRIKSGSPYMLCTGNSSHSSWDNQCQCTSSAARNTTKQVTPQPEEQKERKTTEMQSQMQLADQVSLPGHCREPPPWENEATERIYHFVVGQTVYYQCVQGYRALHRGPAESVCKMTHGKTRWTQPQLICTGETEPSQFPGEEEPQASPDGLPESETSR

T4: human interleukin-2 receptor β-chain (IL-2Rβ; CD122), recombinant protein (human, UniProt P14784 27-240)
T4 construct: also called human IL-2R subunit CD122
T4 sequence: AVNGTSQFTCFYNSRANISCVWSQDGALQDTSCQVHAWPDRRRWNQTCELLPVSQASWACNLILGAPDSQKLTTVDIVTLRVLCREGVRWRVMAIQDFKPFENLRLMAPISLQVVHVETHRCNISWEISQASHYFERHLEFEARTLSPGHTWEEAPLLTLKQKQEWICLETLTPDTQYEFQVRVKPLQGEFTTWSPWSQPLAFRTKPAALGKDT


Key:
[1] = target: T1, human IL-2Rγ (common cytokine receptor …); test: binding ELISA, periplasmic extract on coated human IL-2Rγ
Protocol: In a binding ELISA, human or mouse IL-2Rα, IL-2Rβ and IL-2Rγ proteins were coated directly on maxisorp microtiter plates overnight at 4° C. Free binding sites were blocked using 4% Marvel in PBS for 1 hour. Next, 1:5 dilution of P.E. in 1% Marvel/PBS were added to wells and incubated for 1 hour. […] Binding specificity was determined based on O.D. at 450 nm values compared to negative controls.

[2] = target: T1, human IL-2Rγ (common cytokine receptor …); test: SPR off-rate ranking, periplasmic extract over immobilised human IL-2Rγ
Protocol: SPR was performed to determine dissociation rates using Biacore 3000 instrument (GE Healthcare). Briefly, human and mouse IL-2R proteins were immobilized on carboxylmethyl dextran sensor chip (CM5) at approximately 2500 RUs using amine coupling in acetate buffer (GE Healthcare). The VHH-containing P.E. were loaded with a flow rate of 30 uL/min and the off-rates were measured over a 120s period.

[3] = target: T2, human interleukin-2 receptor α-chain …; test: ELISA, bivalent VHH-hFc
Protocol: (§1) Monospecific monovalent and bivalent IL-2Rα-, IL-2Rβ- and IL-2Rγ-specific antibodies that were selected on human IL-2R subunits, were evaluated for their cross-reactivity in an ELISA. Human and cynomolgus monkey receptor subunits (Acrobiosystems, KactusBiosystems) were coated at 1 μg/mL in PBS (pH 7.4) in a Maxisorp plate (Nunc) and incubated overnight at 4° C. The plates were further washed with PBS-Tween pH 7.4 and incubated with 1% cascin/PBS-Tween blocking solution for 1 hour shaking at 400 rpm. Subsequently, the plate was washed three times with PBS-Tween pH 7.4, after which the test antibodies diluted in 0.1% casein/PBS-Tween were added to the plate and incubated for 1 hour. The plate was again washed three times, after which goat anti-human IgG Fc (HRP) detection antibody (abcam) was added to the plate and incubated for 30 min. The colouring reaction was performed with TMB (Sigma-Aldrich) and stopped with 0.5N H₂SO₄.
(§2) Absorbance was measured at 450 nm with the reference wavelength of 620 nm using spectrophotometer. Final analysis and graphic output were performed with GraphPad Prism version 8 (GraphPad Software). The dose-response binding curves were fit to a nonlinear regression model (log (agonist) vs. response with a variable slope (four parameters)).

[4] = target: T3, cynomolgus monkey IL-2Rα/CD25 subunit; test: ELISA, bivalent VHH-hFc
Protocol: as §1, §2

[5] = target: T3, cynomolgus monkey IL-2Rα/CD25 subunit; test: ELISA, bivalent; EC50 cyno vs human subunit
Protocol: as §1, §2

[6] = target: T4, human interleukin-2 receptor β-chain …; test: P.E. off-rate SPR
Procedure, shortened: (§3)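 First, the IL-2R protein is immobilised via amine coupling in acetate buffer to roughly 2500 RU on a CM5 sensor chip. Next, the VHH extract is loaded at 30 uL/min. Finally, dissociation is recorded for 120s.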

[7] = target: T4, human interleukin-2 receptor β-chain …; test: P.E. binding ELISA
Procedure, shortened: (§4)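 Plates were coated overnight at 4° C with human or mouse IL-2R chain protein, and free sites blocked for 1 hour in 4% Marvel in PBS. Periplasmic extracts diluted 1:5 in 1% Marvel/PBS then bound for 1 hour, with specificity assessed from 450 nm absorbance relative to negative controls.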

[8] = target: T2, human interleukin-2 receptor α-chain …; test: P.E. off-rate SPR
Procedure, shortened: as §3

[9] = target: T2, human interleukin-2 receptor α-chain …; test: P.E. binding ELISA
Procedure, shortened: as §4

Row | Binder | koff [6] [s⁻¹] | OD450 nm [7] [OD450 nm] | koff [8] [s⁻¹] | OD450 nm [9] [OD450 nm] | other results
1 | FJ1427_P035MP07A12 (VHH, Tested as soluble VHH fragment in periplasmic extract (P.E.); also called Clone nr) VHH: QVQLQESGGGLVQAGGSLRLSCAASGRTLSRYAMGWFRQAPGSEREFVAASSWGGDTFYADSVEGRFTFSRDNAKNAVYLQMNSLQPEDTAAYYCAAAPTSFPTTAYSSSNSYAYWGQGTQVTVSS |  |  |  |  | P.E. binding ELISA OD450 [1]: 0.485 OD450 nm; koff [2]: 0.0027 s⁻¹
2 | FJ1427_P035MP07C11 (VHH, Tested as soluble VHH fragment in periplasmic extract (P.E.); also called Clone nr) VHH: QVQLVESGGGLVQAGASLRLSCAASGRTLSRYAMGWFRQAPGKEREFVAASSWGGDTYYADSVEGRFTFSRDNAKNAVYLQMNSLQPEDTAVYYCAGAPTSFATTAYSSSNSYAYWGQGTQVTVSS |  |  |  |  | P.E. binding ELISA OD450 [1]: 0.858 OD450 nm; koff [2]: 0.00485 s⁻¹
3 | 13-MP05E12 VHH-hFc, monospecific bivalent (Fc fusion, IgG1 Fc LALA-PG; not shown: human IgG1 CH2 and CH3 domains (Fc)) QVQLQESGGGLVQAGDSLRLSCAASGFNFGWHAMGWFRQAPGKEREFVATITWTGRDTYYADSVRGRFTISKDNAKDTLFLQMNSLRPDDTGVYYCAKARERATWAYSEDDCDYWGQGTQVTVSS |  |  |  |  | EC50 [3]: 0.049 nM; EC50 [4]: 0.051 nM; Fold change [5]: 1 fold
4 | 17-MP02C09 VHH (periplasmic extract) (VHH, soluble VHH in periplasmic extract) VHH: QVQLQESGGGLVQAGGSLRLSCVASGSVSSINGMAWYRQGADNQRVLVAAISRVGNTAYGDSVKGRFTISRQNARNTVYLQMNSLKPEDTAVYYCNADSWGGDDYWGQGTQVTVSS | 0.000848 | 1.21 |  |  | 
5 | 26-MP06A07 VHH (periplasmic extract) (VHH, soluble VHH in periplasmic extract) VHH: QVQLQESGGGLVQAGGSLRLSCAASGDVFVRYTMAWFRQAPGKEREFVASVTDSGRTTEYVDSVKGRFTVSRDNAKNTAYLQMNNLKPEDTAIYYCAANTDYFQIRSLDLNTWGQGTQVTVSS | 0.000363 | 1.03 |  |  | 
6 | 3-MP01E03 VHH (periplasmic extract) (VHH, soluble VHH in periplasmic extract) VHH: QVQLVESGGGLVQAGGSLRLSCTASGRTLSSYSMAWFRQAADKGREFVTAISSSGVVTHVLDSVKGRFTISRDNAKNTVYLQMNSLQPEDTALYFCAGTASSYSTYEANYNYWGQGTLVTVSS |  |  | 0.000799 | 2.54 | 
7 | 20-MP03F10 VHH (periplasmic extract) (VHH, soluble VHH in periplasmic extract) VHH: EVQLVESGGGLVQAGGSLRLSCAASGRDFSSYAMGWFRQAPGKEREFVVAITWTKRSTDFPDSVKGRFTISRDNAKNTVYLDMNSLKPEDTAVYYCASARGLPVTPLGDIIYWGEGTLVTVSS | 0.000595 | 0.497 |  |  | 
8 | 10-MP05F03 VHH (periplasmic extract) (VHH, soluble VHH in periplasmic extract) VHH: QVQLVESGGGLVQAGGSLRLSCAASGIPFDNYAMGWFRQAPGKEREFVAARDLEGIITRYGDSVKGRFTISRGNAKNTVFLQMNSLKPEDTAVYYCAARDGGVVAGSRSSAQYNYWGQGTQVTVSS |  |  | 0.000639 | 2.46 | 
9 | 2-MP01A02 VHH (periplasmic extract) (VHH, soluble VHH in periplasmic extract) VHH: QVQLVESGGGLVQPGGSLRLSCATSGFTFRNNFMSWVRQAPGKGLEWVSTISYGGESTTYAESVKGRFTISRDNAKNTLYLQMNNLKPEDTAVYYCAKATSYDSIRSGSRGQGTQVTVSS |  |  | 0.00153 | 2.62 | 
10 | 8-MP01C12 VHH (periplasmic extract) (VHH, soluble VHH in periplasmic extract) VHH: QVQLVESGGGLVQPGGSLRLSCATSGFTFSNNFMSWVRQAPGKGLEFVSTISYGGESTTYAEAVKGRFTISRDNAKNTLYLQMNNLKPEDTAIYYCAKATSYTSIRGAPRGQGTQVTVSS |  |  | 0.000383 | 2.53 | 
11 | 12-MP05B12 VHH-hFc, monospecific bivalent (Fc fusion, IgG1 Fc LALA-PG; not shown: human IgG1 CH2 and CH3 domains (Fc)) QVQLVESGGGLVQAGGSLRLSCAASGFTFDGYAIGWFRQAPGKEREGVSYITGSDGSTYYADSVKGRFTISSNNAKNTVYLHMNSLKPDDAAVYYCAIDRLGSRGAYVPIWWRSSDMDLWGKGTLVTVSS |  |  |  |  | EC50 [3]: 0.074 nM; EC50 [4]: 0.084 nM; Fold change [5]: 1.1 fold

Continued, in another order:

Row | koff [6] [s⁻¹] | OD450 nm [7] [OD450 nm] | koff [8] [s⁻¹] | OD450 nm [9] [OD450 nm] | Binder | other results
12 | 0.00105 | 0.54 |  |  | 23-MP06F03 VHH (periplasmic extract) (VHH, soluble VHH in periplasmic extract) VHH: QVQLVESGGGLVQAGGSLRLSCAVSGDVFVRYTMAWFRQAPGKEREFVASVTDSGRTTDYVHSVKGRFTVSRDNAKNTVYLQMNNLKPEDTAVYYCAANTDYFQIKSLDANTWGQGTQVTVSS | 
13 | 0.000296 | 0.245 |  |  | 19-MP03F08 VHH (periplasmic extract) (VHH, soluble VHH in periplasmic extract) VHH: EVQLVESGGGLVQTGGSLRLSCAASGGTFSRDAMAWFRQVPGKEREFVALISWSGATTNYADSVKGRFAISRDNGKNTVYLQMNRLKPADTAIYYCAADRRPMGSRSYFEPTEYDDWGQGTQVTVSS | 
14 |  |  | 0.00042 | 2.62 | 5-MP01F05 VHH (periplasmic extract) (VHH, soluble VHH in periplasmic extract) VHH: EVQLVESGGGLVQAGGSLRLSCAASIRAFTTWSMAWFRQAPGKEREYVARINVSGSVTYYADFVKGRFTISRDNAKKTMYLEMNNLKPEDTALYYCAADRTGVGTNDYNYWGQGTQVTVSS | 
15 | 0.000471 | 0.355 |  |  | 24-MP06E05 VHH (periplasmic extract) (VHH, soluble VHH in periplasmic extract) VHH: QVQLVESGGELVQGGASLRLSCAASGRTFSNANMAWFRQAPEKEREFVALITWSSGSTLYADSVKGRFTISRDNARKMVYLQMNSLKPEDTAVYYCAADGPPYSGTYYRYDTYDYWGQGTQVTVSS | 
16 |  |  | 0.0206 | 1.79 | 6-MP01G05 VHH (periplasmic extract) (VHH, soluble VHH in periplasmic extract) VHH: QVQLQESGGGLVQAGGSLRLSCAASGRTFSSYAMGWFRQAPGKEREFVAVISWNVDNTEYTDSVKGRFTISRDNDKNMVYLQMNSLKPEDTAVYYCAADSIPLSSDMSPTATEYGYWGQGTQVTVSS | 
17 | 0.000141 | 1.38 |  |  | 16-MP02B08 VHH (periplasmic extract) (VHH, soluble VHH in periplasmic extract) VHH: EVQLVESGGGLVQAGGSLRLSCAASGRAIENYPVGWFRQAPGKEREFVAAITWISGSTLYADSVKGRFTISRDNAKNTVYLQMSSLKPEDTALYYCAAALKTITRGQNDYSYWGQGTQVTVSS | 
18 |  |  | 0.0229 | 1.71 | 1-MP01H01 VHH (periplasmic extract) (VHH, soluble VHH in periplasmic extract) VHH: EVQLVESGGGLVQAGGSLRLSCAASGRTFRTHNMGWFRRAPGKEREFVAAISWNVDNTLYADSVKGRFTISRDNGRNMVYLQMNSLKPEDTAVYYCAADNIPLSSDVAATATEYDYWGQGTQVTVSS | 
